Assays:
human PCSK9 (wild type) [1] = target: human PCSK9 (wild type) (human); test: Biacore at pH 6.0 (HBS-P with 0.01 % BSA); KD from nonlinear regression of competition curves, n=1
human PCSK9 (wild type) [2] = target: human PCSK9 (wild type) (human); test: KinExA, solution equilibrium, PCSK9-coated beads
cynomolgus monkey PCSK9 = cynomolgus monkey PCSK9 (cynomolgus monkey, UniProt A0A7N9D9N8 150-747); test: KinExA, solution equilibrium, PCSK9-coated beads; KD adjusted for 50 % active cPCSK9

B1: 31H4 (antibody, V domains shown)
VH: EVQLVESGGGLVKPGGSLRLSCAASGFTFSSYSMNWVRQAPGKGLEWVSSISSSSSYISYADSVKGRFTISRDNAKNSLYLQMNSLRAEDTAVYFCARDYDFWSAYYDAFDVWGQGTMVTVSS
VL: QSVLTQPPSVSGAPGQRVTISCTGSSSNIGAGYDVHWYQQLPGTAPKLLISGNSNRPSGVPDRFSGSKSGTSASLAITGLQAEDEADYYCQSYDSSLSGSVFGGGTKLTVLQ
- Kd (human PCSK9 (wild type) [1]): 0.0125 nM
- Kd (human PCSK9 (wild type) [2]): 0.003 nM
- Kd (cynomolgus monkey PCSK9): 0.002 nM

B2: 16F12 (antibody, V domains shown)
VH: QVHLVESGGGVVQPGRSLRLSCAASGFTFNSFGMHWVRQAPGKGLEWVALIWSDGSDEYYADSVKGRFTISRDNSKNTLYLQMNSLRAEDTAVYYCARAIAALYYYYGMDVWGQGTTVTVSS
VL: QSVLTQPPSVSAAPGQKVTISCSGSSSNIGNNFVSWYQQLPGTAPKLLIYDYNKRPSGIPDRFSGSKSGTSATLGITGLQTGDEADYYCGTWDSSLSAYVFGTGTRVTVLQ
- Kd (human PCSK9 (wild type) [1]): 0.029 nM
- Kd (human PCSK9 (wild type) [2]): 0.015 nM
- Kd (cynomolgus monkey PCSK9): 0.016 nM
